These results are taken from US20220348610A1 (published 2022).

Numbered stars: 1 amine (or outer) side, 2 acyl side, 3 side chain; on linkers, the order of the positions; unused ones are H or OH. Bridge positions count the residues as written; N and C are the ends. Square brackets hold non-standard residues; d marks the D form. Tyr(OMe) = O-methyl-Tyr (4-methoxyphenylalanine), COc1ccc(C[C@H](N[*:1])C(=O)[*:2])cc1; Trp(5-F) = N[C@@H](Cc1c[nH]c2ccc(F)cc12)C(=O)O; mXylylene = c1cc(C[*:1])cc(C[*:2])c1; AlexaFluor 647 = AlexaFluor 647 dye; αMeP = C[C@@]1(C(=O)O)CCCN1; Mpa = O=C(O)CCS

Assay [1] concerns the target T1, biotinylated PCSK9 (UniProt Q8NBP7 31-692, limits assumed, biotinylated (site not stated)). The assay is described as follows: Alexa FRET Standard assay. On the procedure: A solution containing 1 nM biotinylated PCSK9+2.5 nM Lance Streptavidin Europium (Strep-Eu) was made in 50 mM HEPES pH 7.4, 0.15 M NaCl, 5 mM CaCl₂), 0.01% BSA, and 0.01% Surfactant P20. A separate solution containing 40 nM of the AlexaFluor tagged cyclic peptide was made in the same buffer system. An Echo was used to transfer 0.750 ul of compound to an assay plate followed by the addition of 15 ul of PCSK9+Stept-Eu and 15 ul of AF peptide. The final assay volume was 30.750 ul containing 0.5 nM PCSK9, 1.25 nM Strep-Eu, and 20 nM AF cyclic peptide. The reaction was incubated at room temperature for at least two hours prior to fluorescence measurements using an Envision Multilabel Reader. IC₅₀ values were determined by fitting data to a sigmoidal dose-response curve using nonlinear regression. Kᵢ was then calculated from the IC₅₀ and the KD of AF cyclic peptide. Counts (B-counts) of the europium-labeled PCSK9 were followed to observe if compounds were […]. A fall off of the B-counts likely indicated a false positive of inhibition. Data from this procedure was reported as “A=‘numerical value’ (nanomolar)”

The target of assay [2] is T1, biotinylated PCSK9. The assay is described as follows: Alexa FRET Plus assay. Here is the method: A solution containing 1 nM biotinylated PCSK9+2.5 nM Lance Streptavidin Europium (Strep-Eu) was made in 50 mM HEPES pH 7.4, 0.15 M NaCl, 5 mM CaCl₂), 0.01% BSA, and 0.01% Surfactant P20. A separate solution containing 1920 nM of the AlexaFluor tagged cyclic peptide was made in the same buffer system. An Echo was used to transfer 0.075 ul of compound plus 0.675 ul of DMSO to each well of an assay plate followed by the addition of 15 ul of PCSK9+Stept-Eu and 15 ul of AF peptide. The final assay volume was 30.750 ul containing 0.5 nM PCSK9, 1.25 nM Strep-Eu, and 960 nM AF cyclic peptide. The reaction was incubated at room temperature for at least two hours prior to fluorescence measurements using an Envision Multilabel Reader. IC₅₀ values were determined by fitting data to a sigmoidal dose-response curve using nonlinear regression. Kᵢ was then calculated from the IC₅₀ and the KD of AF cyclic peptide. Counts (B-counts) of the europium-labeled PCSK9 were followed to observe if compounds were adversely affecting PCSK9. A fall off of the B-counts likely indicated a false positive of inhibition. Data from this procedure was reported as “P=‘numerical value’ (nanomolar)”

T1 sequence (Q8NBP7 31-692 limits assumed): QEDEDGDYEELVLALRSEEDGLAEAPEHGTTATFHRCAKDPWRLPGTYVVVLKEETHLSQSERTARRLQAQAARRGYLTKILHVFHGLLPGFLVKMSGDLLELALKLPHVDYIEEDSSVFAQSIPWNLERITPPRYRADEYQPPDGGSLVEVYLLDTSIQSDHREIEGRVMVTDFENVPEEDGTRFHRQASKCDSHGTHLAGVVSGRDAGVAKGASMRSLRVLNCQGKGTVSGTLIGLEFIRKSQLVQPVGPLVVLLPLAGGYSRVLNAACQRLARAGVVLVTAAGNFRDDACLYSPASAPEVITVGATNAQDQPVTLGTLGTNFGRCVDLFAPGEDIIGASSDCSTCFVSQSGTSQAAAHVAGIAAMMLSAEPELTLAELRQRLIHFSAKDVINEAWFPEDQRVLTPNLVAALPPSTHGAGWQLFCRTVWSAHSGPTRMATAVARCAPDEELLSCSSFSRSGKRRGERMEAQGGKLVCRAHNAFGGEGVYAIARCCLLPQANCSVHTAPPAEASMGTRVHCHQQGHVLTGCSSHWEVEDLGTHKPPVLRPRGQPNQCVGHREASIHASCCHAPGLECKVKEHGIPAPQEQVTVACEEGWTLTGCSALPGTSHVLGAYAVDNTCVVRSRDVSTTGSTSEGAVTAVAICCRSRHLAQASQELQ

B1: Reagent A (peptide)
peptide: [Mpa]K(AlexaFluor 647)G[Trp(5-F)][Trp(5-F)]DHY[αMeP]C-NH2
modifications: linker N-10 via mXylylene; not fully specified
notes: also called AlexaFluor647 (AF) tagged cyclic peptide; AF cyclic peptide
Broadly, the Kd is the equilibrium constant for the complex coming apart. On to B1, for which binding in the assay with biotinylated PCSK9 [1] was characterised by a dissociation constant (Kd) of 83 nM.

B2: Reagent B (peptide)
peptide: [Mpa]K(AlexaFluor 647)[dA][Trp(5-F)][Trp(5-F)]DH[Tyr(OMe)][αMeP]C-NH2
modifications: linker N-10 via mXylylene; not fully specified
notes: as for B1
On to B2, for which, in the assay with biotinylated PCSK9 [2], the Kd turned out to be 35 nM.
